Test results published in patent US20230406935A1 (F STAR THERAPEUTICS, published 2023).
Read-outs that look alike come from different tables or passages of the source.

T1: PD-L2 (R&D systems 1224-PL) (UniProt Q9BQ51 20-219)
T1 sequence (looked up): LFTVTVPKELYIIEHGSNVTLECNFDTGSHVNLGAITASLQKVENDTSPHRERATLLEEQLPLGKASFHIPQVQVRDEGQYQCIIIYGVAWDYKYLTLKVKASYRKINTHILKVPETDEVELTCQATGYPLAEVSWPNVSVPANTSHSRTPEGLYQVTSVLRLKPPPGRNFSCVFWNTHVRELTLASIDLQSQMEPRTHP


Tests used:
[1] = target: T2, Human PD-L1 expressed on cells (human, UniProt Q9NZQ7 19-290); experiment: cell-based or functional assay
[2] = target: T2, Human PD-L1 expressed on cells; experiment: cell-based or functional assay; remark: listed apart in the source
[3] = target: T2, Human PD-L1 expressed on cells; experiment: cell-based or functional assay; remark: listed apart in the source
[4] = target: T3, Monomeric His-tagged human PD-L1 (Acro biosystems PD1-H5229) (human, UniProt Q9NZQ7 19-238); experiment: SPR Biacore T200 as Example 5.1, anti-Fab capture, monomeric hPD-L1-his
T3 construct: also called hPD-L1-his; PD-L1-his
Description: Fcab and mAb² binding to human PD-L1 was assessed by both BIAcore and in a cell binding assay. To measure the affinity of the clones to monomeric hPD-L1-his, the mAb² were captured using an anti-Fab antibody coated on a CM5 chip (GE 28-9582-20 AC) and Fcabs were captured using a Protein A chip (GE 29127556) using a Biacore T200 (GE). To minimize mass transport effects, the capture level was minimized to 200RU and a fast flow rate of 75 μl/min was used. […] The analysis of the data was done using the Biacore T200 evaluation software. Curves subtracted against a blank flow cell and a run with no antigen were analysed using a 1:1 fitting model with no bulk analysis and Rmax analysed locally.
The selected CH3 domain sequences were subcloned and expressed in “mock” (MSL109) mAb² format with the LALA mutation in the CH2 domain, as described in Example 4.2.1, for further screening.

[5] = target: T2, Human PD-L1 expressed on cells; experiment: cell-based or functional assay; remark: listed apart in the source
[6] = target: T3, Monomeric His-tagged human PD-L1 (Acro …); experiment: SPR Biacore T200, mock mAb^2 captured by anti-Fab on CM5, monomeric antigen in flow, 1:1 fit
[7] = target: T4, Monomeric cynomolgus PD-L1 (Acro Biosciences PD1-C52H4) (cynomolgus, UniProt Q9NZQ7 19-238 (human entry)); experiment: as above
T4 construct: also called cynomolgus monomeric PD-L1

[8] = target: T2, Human PD-L1 expressed on cells; experiment: flow cytometry, HEK293 cells overexpressing the target, anti-human Fc 488
Description: (§1) Cell binding assays were performed by incubating the mock mAb² with either control HEK293 cells or HEK293 cells overexpressing hPD-L1 or cynomolgus PD-L1 cells for 1 hour at 4° C. Mock mAb² binding was subsequently detected using an anti-human Fc 488 detection antibody. Fluorescent signal intensities were measured using a FACS Canto flow cytometer (BD Biosciences).

[9] = target: T5, Cynomolgus PD-L1 expressed on HEK 293 cells (cynomolgus, UniProt Q9NZQ7 19-290 (human entry)); experiment: as above
T5 construct: also called cell-expressed cynomolgus PD-L1
Description: as §1

[10] = target: T6, Biotinylated hPD-L1-Fc-Avi (human, UniProt Q9NZQ7 19-238); experiment: cell-based RBA (Example 8.3), blocking of hPD-L1-Fc-Avi binding to HEK293 hPD-1 cells
Description: (§2) The ability of the mock mAb² to block hPD-1/hPD-L1 and hPD-L1/hCD80 interactions was tested in cell-based Receptor Blocking Assays (RBA). […] The mix was incubated for another hour with HEK293 cells overexpressing either hPD-1 or hCD80.

[11] = target: T6, Biotinylated hPD-L1-Fc-Avi; experiment: cell-based RBA (Example 8.3), blocking of hPD-L1-Fc-Avi binding to HEK293 hCD80 cells
Description: as §2

[12] = target: T2, Human PD-L1 expressed on cells; experiment: cell-based or functional assay; remark: listed apart in the source
[13] = target: T6, Biotinylated hPD-L1-Fc-Avi; experiment: cell-based RBA, blocking of hPD-L1-Fc-Avi binding to HEK293 hPD-1 cells
Description: (§3) The ability of the Fcabs and mock mAb² to block hPD-1/hPD-L1 and hPD-L1/hCD80 interactions was tested in cell-based Receptor Binding Assays (RBA). […] The mix was incubated for another hour with HEK293 cells overexpressing either hPD-1 or hCD80.

[14] = target: T3, Monomeric His-tagged human PD-L1 (Acro …); experiment: SPR Biacore, captured on protein A, monomeric PD-L1-his in flow, 1:1 fit
Description: The monomeric PD-L1-his human antigen was flowed over the chip in titrating concentrations at a high flow rate to minimise mass transport limitations. The KDS were measured using a 1:1 fitting analysis with no refractive index correction and Rₘₐₓ set to local.

[15] = target: T6, Biotinylated hPD-L1-Fc-Avi; experiment: cell-based RBA, blocking of hPD-L1-Fc-Avi binding to HEK293 hCD80 cells
Description: as §3

[16] = target: T3, Monomeric His-tagged human PD-L1 (Acro …); experiment: SPR Biacore T200, Fcab captured on protein A chip, monomeric antigen in flow, 1:1 fit
[17] = target: T4, Monomeric cynomolgus PD-L1 (Acro …); experiment: as above
[18] = target: T1, PD-L2 (R&D systems 1224-PL); experiment: SPR Biacore, PD-L2 coated on the chip, Fcab in flow
Description: (§4) The Fcab was then flowed over the chip at a 1000-fold concentration range. […] However, the Fcab did bind to PD-L1.

[19] = target: the molecule itself; experiment: analytical ultracentrifugation, self-association of the Fcab (monomer and dimer peaks)
Description: To address this, the molecules were analysed via analytical ultracentrifugation using a Beckman Optima XL-1 instrument.
These domains were then purified using protein A to remove Fc domains, anti-his to remove enzymes and finally subjected to SEC to purify the monomeric fraction.

[20] = target: T7, Recombinant human PD-1 with a C-terminal human IgG tag (R&D Systems, 1086-PD) (human, UniProt Q15116 25-167); experiment: SPR Biacore, PD-1 coated on the chip, Fcab in flow
T7 construct: also called human PD-1 Fc; biotinylated PD-1 Fc
Description: as §4

[21] = target: T2, Human PD-L1 expressed on cells; experiment: flow cytometry, HEK293 cells overexpressing the target, anti-human Fc 488; remark: listed apart in the source
Description: as §1, with “Fcabs or” for “the mock”, “mAb² proteins” for “mAb²”, “Fcab/mAb” for “Mock mAb²”, “canto.” for “Canto flow cytometer (BD Biosciences).”

[22] = target: T5, Cynomolgus PD-L1 expressed on HEK 293 …; experiment: as above; remark: listed apart in the source
Description: as §1, with “Fcabs or” for “the mock”, “mAb² proteins” for “mAb²”, “Fcab/mAb” for “Mock mAb²”, “canto.” for “Canto flow cytometer (BD Biosciences).”

T3 sequence (Q9NZQ7 19-238 limits assumed): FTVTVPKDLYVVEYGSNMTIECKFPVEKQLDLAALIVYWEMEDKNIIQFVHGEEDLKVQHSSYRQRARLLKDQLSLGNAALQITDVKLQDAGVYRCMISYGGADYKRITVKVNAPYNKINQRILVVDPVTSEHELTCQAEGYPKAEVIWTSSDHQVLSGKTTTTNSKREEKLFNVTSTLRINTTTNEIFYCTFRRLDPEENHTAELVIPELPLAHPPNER
T6 sequence (Q9NZQ7 19-238 limits assumed): as above
T4 sequence (Q9NZQ7 other isoform, or with tags, fused parts or gaps limits assumed): as the sequence (Q9NZQ7 19-238 limits assumed) above, with A33T, A34S, S62N, R68Q, Q82R, F173L, T185A, T192I, H215L counted along it
T5 sequence (Q9NZQ7 other isoform, or with tags, fused parts or gaps limits assumed): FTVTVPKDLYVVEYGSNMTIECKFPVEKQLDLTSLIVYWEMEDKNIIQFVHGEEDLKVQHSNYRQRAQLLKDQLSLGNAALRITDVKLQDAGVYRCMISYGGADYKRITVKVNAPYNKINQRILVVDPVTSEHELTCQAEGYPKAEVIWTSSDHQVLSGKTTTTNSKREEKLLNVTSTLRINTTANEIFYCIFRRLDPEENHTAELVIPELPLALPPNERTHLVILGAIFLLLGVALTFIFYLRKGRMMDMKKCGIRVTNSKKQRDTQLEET
T2 sequence (Q9NZQ7 19-290 limits assumed): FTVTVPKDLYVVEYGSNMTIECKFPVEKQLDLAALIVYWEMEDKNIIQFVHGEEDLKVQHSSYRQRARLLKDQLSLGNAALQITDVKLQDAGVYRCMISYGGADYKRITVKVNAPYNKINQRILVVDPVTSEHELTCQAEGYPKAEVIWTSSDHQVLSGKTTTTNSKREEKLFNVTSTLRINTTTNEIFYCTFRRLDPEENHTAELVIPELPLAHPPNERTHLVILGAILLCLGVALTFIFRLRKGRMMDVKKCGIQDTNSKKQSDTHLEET
T7 sequence (Q15116 25-167 limits assumed): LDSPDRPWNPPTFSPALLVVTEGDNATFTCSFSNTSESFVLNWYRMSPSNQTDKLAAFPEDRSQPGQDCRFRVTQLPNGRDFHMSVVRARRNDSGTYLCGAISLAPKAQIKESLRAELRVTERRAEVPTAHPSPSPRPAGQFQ

| Binder | Kd [4] [nM] | koff [4] [s⁻¹] | DO11.10 EC50 [5] [nM] | Kd [6] [nM] | Kd [7] [nM] | EC50 [8] [nM] | EC50 [9] [nM] | EC50 [10] [nM] | EC50 [11] [nM] | DO11.10 EC50 [12] [nM] | also measured |
| --- | --- | --- | --- | --- | --- | --- | --- | --- | --- | --- | --- |
| FS17-33-116/4420 mAb^2 (bispecific antibody, human IgG1, kappa, L234A L235A, V domains shown) VH: EVKLDETGGGLVQPGRPMKLSCVASGFTFSDYWMNWVRQSPEKGLEWVAQIRNKPYNYETYYSDSVKGRFTISRDDSKSSVYLQMNNLRVEDMGIYYCTGSYYGMDYWGQGTSVTVSS VL: DVVMTQTPLSLPVSLGDQASISCRSSQSLVHSNGNTYLRWYLQKPGQSPKVLIYKVSNRFSGVPDRFSGSGSGTDFTLKISRVEAEDLGVYFCSQSTHVPWTFGGGTKLEIKR |  |  |  |  |  |  |  |  |  |  | DO11.10 T cell activation assay EC50 [1]: < 1 nM |
| Fcab FS17-33-116 with LALA mutation (designed binder) TCPPCPAPEAAGGPSVFLFPPKPKDTLMISRTPEVTCVVVDVSHEDPEVKFNWYVDGVEVHNAKTKPREEQYNSTYRVVSVLTVLHQDWLNGKEYKCKVSNKALPAPIEKTISKAKGQPREPQVYTLPPSRDESGYWVSLTCLVKGFYPSDIVVEWESNGEPQYWAKTTPPVLDSDGSFFLYSKLTVSNWRWQMDDFSCSVMHEALHNHYTQKSLSLSPGK |  |  |  |  |  |  |  |  |  |  | DO11.10 T cell activation assay EC50 [2]: 0.28 nM; DO11.10 T cell activity assay EC50 [3]: 0.28 nM |
| FS17-33-539AA/MSL109 (bispecific antibody, human IgG1, kappa, L234A L235A) heavy: EEQVLESGGGLVKPGGSLRLSCAASGFTFSPYSVFWVRQAPGKGLEWVSSINSDSTYKYYADSVKGRFTISRDNAENSIFLQMNSLRAEDTAVYYCARDRSYYAFSSGSLSDYYYGLDVWGQGTTVIVSSASTKGPSVFPLAPSSKSTSGGTAALGCLVKDYFPEPVTVSWNSGALTSGVHTFPAVLQSSGLYSLSSVVTVPSSSLGTQTYICNVNHKPSNTKVDKKVEPKSCDKTHTCPPCPAPEAAGGPSVFLFPPKPKDTLMISRTPEVTCVVVDVSHEDPEVKFNWYVDGVEVHNAKTKPREEQYNSTYRVVSVLTVLHQDWLNGKEYKCKVSNKALPAPIEKTISKAKGQPREPQVYTLPPSRDETGYWVSLTCLVKGFYPSDIAVEWESNGEPQYWAKTTPPVLDSDGSFFLYSKLTVSNWRWQLGDVFSCSVMHEALRNHYTQKSLSLSPGK light: DIVMTQSPLSLSVTPGEPASISCRSSQSLLHTNGYNYLDWYVQKPGQSPQLLIYLASNRASGVPDRFSGSGSGTDFTLKISRVETEDVGVYYCMQALQIPRTFGQGTKVEIKRTVAAPSVFIFPPSDEQLKSGTASVVCLLNNFYPREAKVQWKVDNALQSGNSQESVTEQDSKDSTYSLSSTLTLSKADYEKHKVYACEVTHQGLSSPVTKSFNRGEC | 0.39 | 0.000427 | 2.91 | 0.9 | 0.95 | 4.8 | 10 | 49.7 | 119 | 3.14 |  |
| FS17-33-548AA/MSL109 (bispecific antibody, human IgG1, kappa, L234A L235A) heavy: EEQVLESGGGLVKPGGSLRLSCAASGFTFSPYSVFWVRQAPGKGLEWVSSINSDSTYKYYADSVKGRFTISRDNAENSIFLQMNSLRAEDTAVYYCARDRSYYAFSSGSLSDYYYGLDVWGQGTTVIVSSASTKGPSVFPLAPSSKSTSGGTAALGCLVKDYFPEPVTVSWNSGALTSGVHTFPAVLQSSGLYSLSSVVTVPSSSLGTQTYICNVNHKPSNTKVDKKVEPKSCDKTHTCPPCPAPEAAGGPSVFLFPPKPKDTLMISRTPEVTCVVVDVSHEDPEVKFNWYVDGVEVHNAKTKPREEQYNSTYRVVSVLTVLHQDWLNGKEYKCKVSNKALPAPIEKTISKAKGQPREPQVYTLPPSRDEEGYWVSLTCLVKGFYPSDIAVEWESNGEPQYWAKTTPPVLDSDGSFFLYSKLTVSNWRWQLGDVFSCSVMHEALHNHYTQKSLSLSPGK light: DIVMTQSPLSLSVTPGEPASISCRSSQSLLHTNGYNYLDWYVQKPGQSPQLLIYLASNRASGVPDRFSGSGSGTDFTLKISRVETEDVGVYYCMQALQIPRTFGQGTKVEIKRTVAAPSVFIFPPSDEQLKSGTASVVCLLNNFYPREAKVQWKVDNALQSGNSQESVTEQDSKDSTYSLSSTLTLSKADYEKHKVYACEVTHQGLSSPVTKSFNRGEC | 0.43 | 0.000437 | 7.59 | 0.6 | 0.45 | 1.5 | 2.1 | 43.2 | 130 | 8.51 |  |
| Fcab FS17-33-116 (designed binder) TCPPCPAPELLGGPSVFLFPPKPKDTLMISRTPEVTCVVVDVSHEDPEVKFNWYVDGVEVHNAKTKPREEQYNSTYRVVSVLTVLHQDWLNGKEYKCKVSNKALPAPIEKTISKAKGQPREPQVYTLPPSRDESGYWVSLTCLVKGFYPSDIVVEWESNGEPQYWAKTTPPVLDSDGSFFLYSKLTVSNWRWQMDDFSCSVMHEALHNHYTQKSLSLSPGK |  |  |  |  |  |  |  |  |  |  | EC50 [13]: 9.5 nM; Kd [14]: 0.49 nM; koff [14]: 0.00044 s⁻¹; kon [14]: 1.5e+06 M⁻¹ s⁻¹; EC50 [15]: 8.4 nM; Kd [16]: 0.33 nM; Kd [17]: 0.42 nM; binding result [18]: no binding; Kd [19]: ~2000 nM; binding result [20]: no binding; Kd [21]: 1.68 nM; Kd [22]: 0.665 nM |
